How the values were obtained:
[1] = target: T1, reporter protein DTPA-V5-TMD-mRuby3 (DTPA-R) on Jurkat cells (Homo sapiens, UniProt P80188, C107S/D67E/D97E/I100T/I61A/I75T/K154S/K66P/K70L/K95M/L127F/L56R/L62P/L90R/M71L/N85D/P68L/Q48H/Q69L/R101M/R63P/S119N/S147Q/S88A/T156S/T74Q/V53Q/W99L/Y158L/Y72T); test: Competition radioligand binding assay (Y-90 radioligand vs Y-89 charged chelator) on Jurkat cells; details: competition of fixed amount of Y-90 radioligand by dilution series of Y-89 charged chelator, FIG. 14A
T1 construct: to Jurkat cells expressing the reporter protein DTPA-V5-TMD-mRuby3 was assessed; expressed in transfected cells; host or cells: Jurkat (human T-cell line), stably modified
Description: The binding of different radioligands to cells that express the DTPA-R or Colchi-R was shown in binding assays. To this end, Jurkat or PC3 cells that stably express the respective reporter protein of the invention were cultivated, counted and a defined concentration was incubated together with the radioligand in PBS with 2% BSA for 1 h at 37° C. Subsequently, the cells were washed twice with PBS with 2% BSA and finally in the cell-bound fraction and the supernatant fraction the respective radioactivity was detected. (A) NH2-Bn-CHX-A″-DTPA⋅Y-90 binding was competed with a non-radioactive competitor NH2-Bn-CHX-A″-DTPA⋅Y-89. […] (C) A comparative binding assay with ^18F-Py-Ahx-DTPA and ^18F-Py-Glu-Glu-PEG(4)-Colchicine to Jurkat cells expressing either DTPA-R or Colchi-R proving the orthogonal functionality of the two reporter protein & reporter probe pairs.
For the sensitive and specific detection of cells that are labeled with the reporter gene of the invention, the binding between the Anticalin binding protein and the radioligand is of utmost importance. For this reason, the binding of different radioligands to cells that were stably modified with the reporter genes was studies in vitro (FIG. 14). At first, the binding of the ligand domain for the DTPA-R (NH2-CHX-A″-DTPA) to Jurkat cells expressing the reporter protein DTPA-V5-TMD-mRuby3 was assessed. […]

CL31d-V5-CD4TMD (human) [2] = test: flow cytometry, SV5-PK1-AlexaFluor488 on transduced Jurkat cells; the filing reads it as surface expression level
scFv(huC825)-V5-CD4TMD [3] = test: as above
scFv(muC825)-V5-CD4TMD [4] = test: as above
CL31d-V5-CD4TMD (human) [5] = test: Quantification of the SV5-PK1 western blot signals with LI-COR software. The y axis is fold change [relative].
Colchi-V5-TMD (human) = test: as above
[6] = target: DTPA-V5-TMD-mRuby3 (human); test: Magnetic-activated cell separation with SV5-PK1 and anti-mouse IgG microbeads, read by flow cytometry for mRuby3. Cells: Jurkat DTPA-V5-TMD-mRuby3.
[7] = target: Colchi-V5-TMD-mRuby3 (human); test: Magnetic-activated cell separation with SV5-PK1 and anti-mouse IgG microbeads, read by flow cytometry for mRuby3. Cells: Jurkat Colchi-V5-TMD-mRuby3.
CL31d-V5-CD4TMD (human) [8] = test: Flow cytometry of lentivirally transduced Jurkat cells stained with Alexa Fluor 488-conjugated SV5-PK1 against the extracellular V5-tag. Target printed as DTPA-TMD.
[9] = target: DTPA-V5-TMD-mRuby3 (human); test: Flow cytometry of lentivirally transduced Jurkat cells stained with Alexa Fluor 488-conjugated SV5-PK1 against the extracellular V5-tag. Target printed as DTPA-mRuby3.
DTPA-miRFP703 = test: Flow cytometry of lentivirally transduced Jurkat cells stained with Alexa Fluor 488-conjugated SV5-PK1 against the extracellular V5-tag. Target printed as DTPA-miRFP703.
DTPA-miRFP720 = test: Flow cytometry of lentivirally transduced Jurkat cells stained with Alexa Fluor 488-conjugated SV5-PK1 against the extracellular V5-tag. Target printed as DTPA-miRFP720.
CL31d-V5-CD4TMD (human) [10] = test: Flow cytometry of retrovirally transduced Jurkat cells after FACS sorting of the 10% highest expressing cells. Staining with AlexaFluor488-conjugated SV5-PK1. Target printed as CL31d-V5-TMD.
scFv(huC825)-V5-CD4TMD [11] = test: Flow cytometry of retrovirally transduced Jurkat cells after FACS sorting of the 10% highest expressing cells. Staining with AlexaFluor488-conjugated SV5-PK1. Target printed as huC825-V5-TMD.
scFv(muC825)-V5-CD4TMD [12] = test: Flow cytometry of retrovirally transduced Jurkat cells after FACS sorting of the 10% highest expressing cells. Staining with AlexaFluor488-conjugated SV5-PK1. Target printed as muC825-V5-TMD.

CL31d-V5-CD4TMD (human), sequence (chain, as listed by the source): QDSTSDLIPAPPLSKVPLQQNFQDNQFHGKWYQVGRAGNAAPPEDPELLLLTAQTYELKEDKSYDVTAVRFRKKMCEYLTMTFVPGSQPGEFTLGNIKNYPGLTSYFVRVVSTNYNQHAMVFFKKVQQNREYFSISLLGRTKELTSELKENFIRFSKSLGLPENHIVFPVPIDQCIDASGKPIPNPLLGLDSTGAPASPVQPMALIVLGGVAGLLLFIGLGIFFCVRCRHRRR
T1 sequence (P80188 21-197 with the stated changes): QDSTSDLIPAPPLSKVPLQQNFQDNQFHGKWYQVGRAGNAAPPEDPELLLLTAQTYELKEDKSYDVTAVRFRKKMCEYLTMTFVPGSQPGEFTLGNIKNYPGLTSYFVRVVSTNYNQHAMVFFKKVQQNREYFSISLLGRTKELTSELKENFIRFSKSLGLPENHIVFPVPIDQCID

How did the IC50 [1] turn out when Nc1ccc(C[C@H](CN(CC(=O)O)[C@H]2CCCC[C@@H]2N(CC(=O)O)CC(=O)O)N(CC(=O)O)CC(=O)O)cc1 [NH2-CHX-A″-DTPA, [(R)-2-amino-3-(4-aminophenyl)propyl]-trans-(S,S)-cyclohexane-1,2-diaminepentaacetic acid] was run?
Its IC50 is 1.4 nM.

With monoclonal anti-V5-antibody SV5-PK1 as the compound, how does the Median Fluorescence Intensity (MFI) (CL31d-V5-CD4TMD (human) [2]) read?
Its Median Fluorescence Intensity (MFI) is 6560.

What about the Median Fluorescence Intensity (MFI) (scFv(huC825)-V5-CD4TMD [3]) of the same compound?
The Median Fluorescence Intensity (MFI) was 1080.

And the Median Fluorescence Intensity (MFI) (scFv(muC825)-V5-CD4TMD [4])?
Its Median Fluorescence Intensity (MFI) is 1130.

And the fold increase of the quantified V5 band signal, lane 4 over lane 2 (DTPA-V5-TMD-mRuby3) (CL31d-V5-CD4TMD (human) [5])?
Its fold increase of the quantified V5 band signal, lane 4 over lane 2 (DTPA-V5-TMD-mRuby3) is 3.7 fold.

What about the fold increase of the quantified V5 band signal, lane 5 over lane 3 (Colchi-V5-TMD-mRuby3) (Colchi-V5-TMD (human)) of the same compound?
Its fold increase of the quantified V5 band signal, lane 5 over lane 3 (Colchi-V5-TMD-mRuby3) is 5.4 fold.

What about the % mRuby3-positive cells in the MACS eluate [6] of the same compound?
Its % mRuby3-positive cells in the MACS eluate is 98.5%.

And the % mRuby3-positive cells in the MACS flow through [6]?
Its % mRuby3-positive cells in the MACS flow through is 0.8%.

What about the % mRuby3-positive cells in the MACS eluate [7] of the same compound?
Its % mRuby3-positive cells in the MACS eluate is 99%.

And the % mRuby3-positive cells in the MACS flow through [7]?
The % mRuby3-positive cells in the MACS flow through was 1.5%.

What about the MFI (CL31d-V5-CD4TMD (human) [8]) of the same compound?
The MFI was 18500.

What about the MFI [9] of the same compound?
The MFI was 1740.

And the MFI (DTPA-miRFP703)?
The MFI was 2330.

What about the MFI (DTPA-miRFP720) of the same compound?
Its MFI is 2550.

What about the MFI (CL31d-V5-CD4TMD (human) [10]) of the same compound?
Its MFI is 20600.

What about the MFI (scFv(huC825)-V5-CD4TMD [11]) of the same compound?
Its MFI is 6200.

And the MFI (scFv(muC825)-V5-CD4TMD [12])?
Its MFI is 7400.

— patent publication US20230365636A1, “BIOORTHOGONAL REPORTER GENE SYSTEM” (priority 2020, published 2023)
